We go through two molecules from PMC9750918, “Diprenylated cyclodipeptide production by changing the prenylation sequence of the nature’s synthetic machinery” (Applied Microbiology and Biotechnology, 2022).

Series [1] has as its target T1, 7-DMATS (Aspergillus fumigatus, UniProt Q4WYG3).
T1 construct: gene etpPT; 7-DMATS-His6 (C-terminal tag kept), plasmid pLW40, expressed in E. coli, Ni-NTA purified
T1 sequence (Q4WYG3 1-472): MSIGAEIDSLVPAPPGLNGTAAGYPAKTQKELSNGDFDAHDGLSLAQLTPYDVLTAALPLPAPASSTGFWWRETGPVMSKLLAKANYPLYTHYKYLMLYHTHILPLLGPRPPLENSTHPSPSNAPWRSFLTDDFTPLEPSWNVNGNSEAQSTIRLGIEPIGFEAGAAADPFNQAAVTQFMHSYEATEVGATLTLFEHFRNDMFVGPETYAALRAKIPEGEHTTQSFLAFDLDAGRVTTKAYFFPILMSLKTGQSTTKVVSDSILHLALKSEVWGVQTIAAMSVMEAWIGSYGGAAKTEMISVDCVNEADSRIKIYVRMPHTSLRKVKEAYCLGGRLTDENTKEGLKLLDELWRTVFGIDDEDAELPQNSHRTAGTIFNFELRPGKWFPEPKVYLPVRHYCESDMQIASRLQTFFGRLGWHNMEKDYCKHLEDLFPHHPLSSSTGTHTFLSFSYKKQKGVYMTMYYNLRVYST
The series is described as follows: LCMS prenylation assay, conversion yield. It counts as biochemical. The conditions noted are these: 1 mM substrate; 1 mM DMAPP; 5 mM CaCl2; 4 µg protein in 50 µL; pH 7.5; 37 °C; 16 h; C6- and C7-prenylation.

Series [2] concerns the target T2, 6-DMATSSa (Streptomyces ambofaciens, UniProt A3KIV6).
T2 construct: gene SAM23877_0730; 6-DMATSSa-His6 (C-terminal tag kept), plasmid pJW12, expressed in E. coli, Ni-NTA purified
T2 sequence (A3KIV6 1-375): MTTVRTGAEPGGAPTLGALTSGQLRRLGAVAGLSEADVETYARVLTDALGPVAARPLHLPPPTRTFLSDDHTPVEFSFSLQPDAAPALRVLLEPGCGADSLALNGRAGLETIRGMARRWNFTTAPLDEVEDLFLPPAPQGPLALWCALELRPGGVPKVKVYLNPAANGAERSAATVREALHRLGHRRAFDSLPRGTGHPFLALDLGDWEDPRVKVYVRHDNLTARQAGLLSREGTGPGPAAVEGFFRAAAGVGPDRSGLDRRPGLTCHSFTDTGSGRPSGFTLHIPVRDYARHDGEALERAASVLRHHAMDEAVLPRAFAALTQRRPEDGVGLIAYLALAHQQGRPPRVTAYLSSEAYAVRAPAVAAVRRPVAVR
The experiment in a line: LCMS prenylation assay, conversion yield. It counts as biochemical. As to conditions: 1 mM substrate; 1 mM DMAPP; 5 mM CaCl2; 4 µg protein in 50 µL; pH 7.5; 37 °C; 16 h; C6-prenylation.

Substrate in series [3]: CC(C)=CCOP(=O)(O)OP(=O)(O)O
The series is described as follows: HPLC prenylation assay, Michaelis-Menten fit. The series is classed as biochemical, Aspergillus ruber. The conditions noted are these: 1 mM C4-prenylated cyclo-L-Trp-L-Pro (3), 5 mM CaCl2, pH 7.5, 37 °C, 30 min. From the text: (§1) HPLC prenylation assay, Michaelis-Menten fit on EchPT1

Substrate in series [4]: CC(C)=CCc1ccc2[nH]cc(C[C@@H]3NC(=O)[C@@H]4CCCN4C3=O)c2c1
The series is described as follows: HPLC prenylation assay, Michaelis-Menten fit. The series is classed as biochemical, Aspergillus ruber. The conditions noted are these: 1 mM DMAPP, pH 7.5, 37 °C, 35 min.
From the text: as §1

Substrate in series [5]: CC(C)=CCc1ccc2c(C[C@@H]3NC(=O)[C@@H]4CCCN4C3=O)c[nH]c2c1
The series is described as follows: HPLC prenylation assay, Michaelis-Menten fit. It counts as biochemical, Aspergillus ruber. As to conditions: 1 mM DMAPP, pH 7.5, 37 °C, 30 min, N1-prenylation.
From the text: as §1

Substrate in series [6]: CC(C)=CCc1cccc2[nH]cc(C[C@@H]3NC(=O)[C@@H]4CCCN4C3=O)c12
The experiment in a line: HPLC prenylation assay, Michaelis-Menten fit. The series is classed as biochemical, Aspergillus ruber. The conditions noted are these: 1 mM DMAPP, pH 7.5, 37 °C, 30 min.
From the text: as §1

As to `O=C1N[C@@H](Cc2c[nH]c3ccccc23)C(=O)N2CCC[C@@H]12` [compound 1, cyclo-L-Trp-L-Pro], the conversion yield in series [1] is 11.6 ± 1.4%; in series [2] it was 29.9 ± 0.6%.

B1: EchPT1 (Aspergillus ruber) (protein)
chain: MPSEVLTSYYDYPTHDQEAWWRDTGPLFGRFLKGAGYDVHTQYQYLVFFIKNILPSLGPYPARWRSTITPTGLPIEYSLNFQLNSRPLLRIGFEPLSRFSGTPQDPYNKIAAADLLNQLSKLQLHEFDTQLFNHFTNEFELSKSESESLQKQGGINGKSTVRSQTAFGFDLKGGRVAVKGYAFAGLKNRATGTPVGQLISNSIRNLEPQMHCWDSFSILNSYMEESDGWNEYSFVSWDCVDIERSRLKLYGVHNAVTWDKVKEMWTLGGRIENNATIKTGLELLQHMWSLLQINEGDRDYKGGFAADNGGKTLPIIWNYELNKGSPHPAPKFYFPVHGENDLQVSKSISEFFTHLGWQDHARQYPHLLRQIYPNQNISQTERLQAWISFAYNERTGPYLSVYYYSAERPPWGSDQVK
notes: His6-EchPT1 (N-terminal tag kept), plasmid pVW90, expressed in E. coli, Ni-NTA purified
As for B1, the Km turned out to be 100 ± 10 µM in series [3], 80 ± 20 µM in series [4], 50 ± 7 µM in series [5] and 60 ± 10 µM in series [6]. The kcat in series [3] was found to be 0.25 ± 0.02 s⁻¹; in series [4] it was 0.03 ± 0.004 s⁻¹; in series [5], 0.007 ± 0.0004 s⁻¹; in series [6], 0.21 ± 0.02 s⁻¹. Further, the kcat/Km is 2500 M⁻¹ s⁻¹ in series [3], 375 M⁻¹ s⁻¹ in series [4], 140 M⁻¹ s⁻¹ in series [5] and 3500 M⁻¹ s⁻¹ in series [6].

What is called Km is the concentration of substrate that gives half-maximal velocity. Usually kcat stands for the number of substrate molecules converted per active site and unit of time at saturation. As usually defined, the kcat/Km is the turnover number divided by the Michaelis constant.
